Assay: yeast display, Sf9 membrane polyspecificity reagent, FACS + sequencing; frameworks hold sequencing errors
Summary of the method: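 Polyreactivity labels are assigned by the sorting gate from which each nanobody was recovered. The gates were low and high (top ~1%), set on anti-HA fluorescence for expression and streptavidin fluorescence for reagent binding. Before sorting, galactose-induced (36–48 hours) yeast display cells were stained for 1 hour at 4 °C with 10% biotinylated, detergent-solubilized Sf9 membrane reagent.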

Row | Sequence | polyreactivity (PSR sort gate)
1 | QVQLVESGGGLVQAGGSHRLSCAASGNTFPLYAMGWYRQAPGKERELVAAISQRGGSTYYADSVKGRFTISRDNAKNTVYLQMNSLKPEDTAVYYCAATWADEYQYRRYYYWGHGTQVTVSS | high polyreactivity
2 | QVQLVESGGRLVQAGGSLRISCDASGFIFVRNAMGWSRQAPGTEWELVAASTLCTGSTYYADSVKGRFTISRDNAKITVYLQMKSLKPEDTAVYYCNANKRIRPYRPGMDYWGHGTQVTVSS | high polyreactivity
3 | QGQLVESVGGLVQAGGSLRLSCAASGSIFGWYVMGWYRQAPGQERELVAAISSVGSTYYADSVKGRFTISLDNAKNTVYLQMNSLKAEDTAVYYCAKLRYPYLFWDDSEYWGQGTQVTVSS | low polyreactivity
4 | QVQLVESGGGLVQAGGSLRLSCAASGFIFYYNAMGWYRQAPGKERELVAGISRSAGSTYYADSVKGRFTISRDNAKNTVYLQMNSLKPEDTAVYYCAALYLSYITGTSYYWGQGTQVTVSS | low polyreactivity
5 | QGQLVESGGGIVQAGCSLLLSCSASGLIFRRKTLGWYRQAPGTERELVAVISSSGSSTYYADSVKGRFTISRDNAKNTVYLQMNSLKPEDTAVYYCAARYAIGPGYDYWGQGTQVTVSS | high polyreactivity
6 | QVQLVESGGGLVQAGGSLRLSCAASGSILGPYAMGWYRQAPGKERELVAAISWGGGSTYYADSVKGRFTISRDNAKNTVYLQMNSLKPEDTAVYYCAADFGYYDYDYWGQGTQVTVSS | low polyreactivity
7 | QVQLVESGGGLVQAGGSLRLSCAASGFTFYVNAMGWYRQATGKERELVAAISSRGGSTYYADSVKGRFTISRDNAKNTVYLQMNSLKPEDTAVYYCNRVRDQRRYEYWGQGTQVTVSS | high polyreactivity
8 | QVQLVESGGGLVQAGGSLRLSCAASGLIIRWNAMGWYRQAPAKERELVAAINRGGSTYYADSVKGRFTISRDNAKNTVYLQMTSLKPEDTAVYYCAVGYAHSSNRRYYYKKTHGYWGQGTQVTVSS | low polyreactivity
9 | HDQRVESGGGLVQAGGSLRLSCAASGITFASYAMGWYRQAPGKDRELVAAISWGGSRTYYADSVKGRFTISRDTAKISVYLQMNSLKPEDTAVYYCNAHTRYGPDYSYYYWGQGTQVTVSS | high polyreactivity
10 | QVQLVESGGGLVQAGGSLRLSCAASGSTLRRYAMGWYRQAPGKEMELVAAISGSGDSTYYADSVKGRFTISRDNAKNTVYLQMNSLKPEDTAVYYCNAVYAFNGYDYWGQGTQVTVSS | low polyreactivity
11 | QVQLVESGGGLVQAGGSLRISCAASGNIFGVYAMGWYRQAPGKERELVATITTGGSTYYADSVKGRFTISRDNAKNTVYLQMNSLKPEDTAVYYCAADVGGGNYVYYGNDYDDGYWGQGTQVTVSS | low polyreactivity
12 | QVQLVESGGGLVQAGGSLRLSCAASGFIFDWYAMGWYRQAPGKERELVAAITRSGGNTYYADSVKGRFTISRDNAKNTVYLQMNSLKPEDTAVYYCNAVAAVYAYGHDYWGQGTQVTVSS | high polyreactivity
13 | QVQLVESGGGLVQAGGSLRLSCAASGRIFFTNAMGWYRQAPGKERELVAAITSTGSRTYYADSVKGRFTISRDNAKNTVYLQMNSLKPEDTAVYYCNRVSHLDYYWGQGTQVTVSS | high polyreactivity
14 | QVQLVESGGGLVQEGGSLRLSCAASGSTFHGYAMGWYRQAPGKERELVASISWSGGRTYYADSVKGRFTISRDNAKNTVYLQMNSMKPEDTAVYYCAAETGGLGGDYLGQGTQVTVSS | low polyreactivity
15 | QDQLVESGGGLVQAGGSLPLSCAASANIFPLYAMGWYRQAPGKERELVAAITWSTTSTYYADSVKGRFTISRDNAKNTVYLQMNSLKPEDTAVYYCKAKTDESYYYSDYDYWVQGTQVTVSS | low polyreactivity
16 | QVQLVESGGGLLQAGGSLRLSCAASGITFLGYAMGWYRQATWKERELVAAISISGDTYYADSEKGRFTISRDNAKNTVYLQMNSLKPEDTAVYYCAAVQSYAGFEYGYWGQGTQVTVSS | high polyreactivity
17 | QVQLVESGGGLVQAGGSLRLSCAASGRTFVDYDMGWYRQAPGKERELVADINSGGSTYYADSVKGRFTISRDNAKNTVYLQMNSLKPEDTAVYYCAARPYYWGQGTQVTVSS | high polyreactivity
18 | QVQLVESGGGLVQAGGSLRLSCAASGSTFVPYAMGWYRQAPGKERELVASISWRGGSTSYADSVKGRFTISRDNAKNTVYLQMNSLKPEDTAVYYCAARPRYRYKQDYYYWGQGTQVTVSS | high polyreactivity
19 | QVQLVESGGALVQAGGSLRLSCAASGYTFFYYAMGWYRQARGKERVLVAIDLNGGSTYYADSVKGRFTISRDNEKNTVYLQINSLKPEDTAVYYCNAKTSIGTWVGDDYWGQGTQVTVSS | low polyreactivity
20 | QDQLVESGGGLVQAGGSLRLSCAASGIISYKNVMGWYRQAPGKERELDAAITSGGSTNYADSVKGRFTISRDNAKNTVYLQMNSLKPEDTAVYYCAARYYGSYGKQPRARYGYWGQGTQVTVSS | high polyreactivity
21 | QVQLVESGGGLVQAGGSLRLSCAASGRIFGWNAMGWYRQAPGKERELVASIRSGGRTNYADSVKGRFTISRDNAKNTVYLQMNSLKPEDTAVYYCAVGPYYQSTQIYDYWGQGTQVTVSS | low polyreactivity
22 | QVQLVESGGGLVQAGGSLRLSCAASGRIVEVYAMGWYRQARGKERELVAAISSGGGSTYYADSVKGRFTISRDNAKNTVYLQMNSQKPEDTAVYYCAARKPSVRGAPYYYWGQGTQVTVSS | high polyreactivity

Row | Sequence | polyreactivity (PSR sort gate)
23 | QVQLVESGGGLVQEGGSIRLSCAASGRIFYFNTMGWSRQAPGKERELVAAISKNGGSTYYADSVKGRFTISRDNEKNSVYLQMNSLKPEDTAFYLCAKTRRLSPYDYWGLGTQVTVSS | high polyreactivity
24 | QVQLVESGGGLVQAGGSLRLSCAASGSTFQYNAMVGYIQAPGKERELVAAISRGSSTKYADSVKGRFTISRDNAKNTVYLQMNSLKPEDTAVYYCAVDTRPSHRTRAYYYWGQGTQVTVSS | high polyreactivity
25 | QVQLVESGGGIVQAGGSLRLICAASGRTFKYYAMGWYRQAPGKERELVAAIRSRTGSTYYADSVKGRFTISRDNAKNTVYLQMNSLKPVDTAVYYCAAQPGSYYGPRWYYDDDYWGQGTQVTVSS | high polyreactivity
26 | QVQLVESGGGLVQAGGSLRLSCAASGSIFIHYAMGWYRQAPGKERELVAAISRTGSTYYADSVKGRFTISRDNAKNTVYLQMNSLKPEDTAVYYCAKRISTRRYDYWGQGTQVTVSS | low polyreactivity
27 | QVHLVESGGGLVQAGGSLRLSCDASGSTFLSNAMGWYRQAPGKERELVAAITTSGTSTFYADSVKGRFTISRDTAKNTVYLQMNSLKPEDTAVYCAKDYLPYLHFVAPSTGDYDYWGQGTQVTVSS | low polyreactivity
28 | QVQLVESGGGLVQAGGSLRLSCAASGRIFTSNAMGWYRQAPGKEREFVAAITKRGGRTYYADSVKGRFTISRDNAKNTVYLQMNSLLPEDTAVYYCAAGATGTSYYGGDYWGQGTQVTVSS | high polyreactivity
29 | QVQLVESGGGLVQAGGSLRLSCAASGRIFTTYAMGWYRQAPGKERELVASISWRVGSTYYADTVKGRFTISRDNAKITVYLQMNSLKPEETAVYYCAAVGGNYHASRLRYYWGQVTQVTVSS | low polyreactivity
30 | QVQLEESGGGLVQAGGRLRLSCAASGGTFRNNAMGWDRQAPGKEREVVAAISSSGTSTYYADSVKGRFTISRDNAKNTVYLQMNSLKPEDTAVYYCNADALGYPWWDHMDYWGQGTQVTVSS | low polyreactivity
31 | QVQLVESGGGLVQAGGSLRLSCAASGSIFIRNAMGWYRQAPGKERELVAAISGSGSSTYYADSVKGRFTISRDNAKNTVYLQMNSLKPEDTSVYYCNTDRNHSYQYGGYDYWGQGTQVTVSS | low polyreactivity
32 | QVQLVESGGGLVQAGGSLRLSCAASGSIFSGWYTMGWYRQAPWKERELVASISISTTDTYYADSVKGRFTISRDNAKNTVYVQMNSLKPEDTAVYYCAASGWDHVIVEYDYWGQGTQVTVSS | low polyreactivity
33 | QVQLVESGGGLVQAGGSLRLSCAASGSIFVGNAMGWYRQAPGKERELVSTISRGARTKYADSVKGRFTISRDNAKNTVYLQMNSLKPEDTAVYYCNKVSSYYVFYTPYYSWGQGTQVTVSS | low polyreactivity
34 | QVQLVESGGGLVQAGGSLRLSCAASGSTFEYYAMGWYRQAPGKERELVAAITTSGGITYYADSVKGRFTISRDNAKNTVYLQMNSLKPEDTAVYYCNADAVPLPTLVTYLYDYWGQGTQVTVSS | low polyreactivity
35 | QVQLVESGGGLVQAGGSLRLSCAASGRTFYVYVMGWYRQAPGKEREFVAAINYGSTYYADSVKGRFTISRDNAKNTVYLQMNSLKPEDTAVYYCATRSGYDSVYYFYTLWYYYWGHGTQVTVSS | low polyreactivity
36 | QVQLVESGGGLVQAGGSLRLSCAASGRISRCYVMGWYRQEPGKERELVAAITWNSGSTYYADSVKGRFTISRDNAKNTVYLQMNSLKPEDTAVYYCAAVLYSRYQQYDFWGQGTQVTVSS | high polyreactivity
37 | QVQLVESGGGLVQAGGSLRLSCAASGNTFSDYAMGWYRQAPGKERELVAAISSSGVRTYYADSVKGRYTISRDNAKNTVYLQINSLKPEDTAVSYCNAVLNQLSYIYPAVGFWGQGTLVTVSS | high polyreactivity
38 | QDQLVESGGGLVQAGGSLSLSCAASRFIYLTYAMGWSRQAPGKERELVAAISSRGGSTYYADSVKGRFTISRDNAKNTVYLQMNSLKPEDTAVYYCAYTRGKYDYWGQGTQVTVSS | high polyreactivity
39 | QVQLVESGGGLVQAGGSLRLICAASGRIFDDNAMGWYRQAPGKERELVATISSTGGRTYYADSVKGRFTISRDNAKNTVYLQMNSLKPEDTAVYYCAARRRQGGYYYWGQGTQVTVSS | high polyreactivity
40 | QLQLVESGGGLVQAGGSLRLSCAASGRNFGYNAMGWYRPAPGKERELVAVINIDGSTNYADSVKGRFTISRDNAKNTVYLQLNSLNPEDTAVYYCAARYWKSYRNGGFFGFTYYYWGQGTQVTVSS | high polyreactivity
41 | QVQLVESGGGLVQAGGSLRLSCAASGRIFPTNAMGWYTQAHGKEREFVSAITWRGGSTYYADSVKGRFTISRDNAKNTVYLQMNSLKPEDTAVYYCAATGHIVFFRADDYGYWGQGTQVTVSS | low polyreactivity
42 | QVQLVESGGGLVQAGGSLRLSCAASGNIFSDNAMGWYRQAPGKESELVAAITSGGSTNYADSVKGRFTISRDNAKNTVYLQMNSLKPEDTAVYYCAADISYRHFLFDYWGQGTQVTVSS | low polyreactivity
43 | QVQLVESGGGLVQAGGSLRLSCAASGRIFVYNAMGWYRQAPGKERELVAAITSGGSTYYADSVKGRFTISRDNAKNTVYLQMNSLKPEDTAVYYCAATYFSYTYSRYDYWGQGTQVTVSS | high polyreactivity

— the nanobody polyreactivity screen of Harvey et al. (2022)
